Experimental data reported in publication PMC5549332 (BMC Plant Biology, 2017).

T1: GLO4 (Oryza sativa, UniProt Q6YT73)
T1 construct: gene GLO5; complete ORF, N-terminal 6xHis tag kept, expressed in Saccharomyces cerevisiae INVSc1, Ni-IDA purified, subunit about 40 kDa, homo-oligomer; GLO4/GLO5 names may be swapped in databases, go by printed locus
T1 sequence (Q6YT73 1-369): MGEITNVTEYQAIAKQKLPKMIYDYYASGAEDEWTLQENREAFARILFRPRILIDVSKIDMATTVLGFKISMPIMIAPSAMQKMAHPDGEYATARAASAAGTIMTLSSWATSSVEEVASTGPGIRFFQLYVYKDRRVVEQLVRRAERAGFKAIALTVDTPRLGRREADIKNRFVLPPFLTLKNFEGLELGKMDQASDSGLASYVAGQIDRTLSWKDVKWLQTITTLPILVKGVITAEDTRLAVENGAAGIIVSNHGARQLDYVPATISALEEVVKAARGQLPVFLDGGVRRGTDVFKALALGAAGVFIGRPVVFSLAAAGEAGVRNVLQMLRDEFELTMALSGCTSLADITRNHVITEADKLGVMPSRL

T2: GLO3 (Oryza sativa, UniProt Q7FAS1)
T2 construct: complete ORF, N-terminal 6xHis tag kept, expressed in Saccharomyces cerevisiae INVSc1, Ni-IDA purified, subunit about 40 kDa
T2 sequence (Q7FAS1 1-367): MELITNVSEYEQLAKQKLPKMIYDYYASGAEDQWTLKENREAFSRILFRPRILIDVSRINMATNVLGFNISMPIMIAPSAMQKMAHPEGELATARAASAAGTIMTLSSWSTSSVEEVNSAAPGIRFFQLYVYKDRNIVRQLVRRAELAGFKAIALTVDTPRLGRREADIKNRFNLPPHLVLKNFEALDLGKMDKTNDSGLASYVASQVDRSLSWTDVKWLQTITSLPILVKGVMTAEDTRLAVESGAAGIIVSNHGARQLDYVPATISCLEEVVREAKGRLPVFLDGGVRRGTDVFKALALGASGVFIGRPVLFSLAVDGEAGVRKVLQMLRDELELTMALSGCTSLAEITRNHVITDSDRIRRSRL

T3: GLO1 + 4 (Oryza sativa, UniProt Q10CE4+Q6YT73)
T3 construct: co-expressed N-terminally 6xHis-tagged GLO1 (pYES3) and GLO4 (pYES2) in Saccharomyces cerevisiae, Ni-IDA purified; GLO4/GLO5 names may be swapped in databases
T3 sequence (Q10CE4 1-369): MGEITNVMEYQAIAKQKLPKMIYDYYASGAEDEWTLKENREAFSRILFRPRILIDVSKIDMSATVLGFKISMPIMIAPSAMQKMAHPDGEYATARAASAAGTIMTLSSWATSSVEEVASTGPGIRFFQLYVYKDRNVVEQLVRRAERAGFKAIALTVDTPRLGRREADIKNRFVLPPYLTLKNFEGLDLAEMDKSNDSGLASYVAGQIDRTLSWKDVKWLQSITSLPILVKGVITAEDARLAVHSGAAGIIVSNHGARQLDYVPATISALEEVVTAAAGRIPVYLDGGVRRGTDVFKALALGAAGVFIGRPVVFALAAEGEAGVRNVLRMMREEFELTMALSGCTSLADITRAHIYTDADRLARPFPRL
T3 sequence (Q6YT73 1-369): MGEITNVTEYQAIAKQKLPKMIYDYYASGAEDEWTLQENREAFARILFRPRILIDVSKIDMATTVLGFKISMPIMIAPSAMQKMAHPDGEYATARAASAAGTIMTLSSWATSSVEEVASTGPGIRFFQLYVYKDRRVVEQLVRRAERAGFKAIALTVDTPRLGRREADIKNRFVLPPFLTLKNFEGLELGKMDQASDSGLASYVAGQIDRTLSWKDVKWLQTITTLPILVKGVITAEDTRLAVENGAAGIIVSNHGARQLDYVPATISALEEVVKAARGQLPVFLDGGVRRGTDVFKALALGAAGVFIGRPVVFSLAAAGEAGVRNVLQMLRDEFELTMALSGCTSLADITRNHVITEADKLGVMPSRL

T4: GLO1 (Oryza sativa, UniProt Q10CE4)
T4 construct: complete ORF, N-terminal 6xHis tag kept, expressed in Saccharomyces cerevisiae INVSc1, Ni-IDA purified, subunit about 40 kDa, homo-oligomer
T4 sequence (Q10CE4 1-369): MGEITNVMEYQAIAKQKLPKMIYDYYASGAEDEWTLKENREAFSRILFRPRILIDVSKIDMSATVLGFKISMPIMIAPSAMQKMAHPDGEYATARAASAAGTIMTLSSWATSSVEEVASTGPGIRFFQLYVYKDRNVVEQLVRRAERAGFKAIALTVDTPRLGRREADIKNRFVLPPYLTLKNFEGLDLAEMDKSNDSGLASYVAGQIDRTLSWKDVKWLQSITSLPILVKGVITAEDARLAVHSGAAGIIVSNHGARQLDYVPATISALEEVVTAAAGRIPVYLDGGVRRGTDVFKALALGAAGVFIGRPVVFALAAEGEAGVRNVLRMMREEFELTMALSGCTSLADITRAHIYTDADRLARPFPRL


Experiments:
GLO4 = target: T1, GLO4; test: peroxidase-coupled H2O2 assay, […] nm; slope replot of Lineweaver-Burk; format: biochemical
GLO3 = target: T2, GLO3; test: as above; format: biochemical
GLO1 + 4 = target: T3, GLO1 + 4; test: as above; format: biochemical
GLO1 = target: T4, GLO1; test: as above; format: biochemical
purified protein [1] = substrate: C[C@H](O)C(=O)O; test: purified protein; settings: pH 7.8, 30 °C, 0.1 mM FMN
purified protein [2] = substrate: O=C(O)CO; test: purified protein; settings: pH 7.8, 30 °C, 0.1 mM FMN
purified protein [3] = substrate: O=C(O)[C@H](O)CO; test: purified protein; format: biochemical, Oryza sativa; settings: pH 7.8, 30 °C, 0.1 mM FMN
purified protein [4] = substrate: O=CC(=O)O; test: purified protein; format: biochemical, Oryza sativa; settings: pH 7.8, 30 °C, 0.1 mM FMN

Row | Ki (GLO4) [mM] | Ki (GLO3) [mM] | Ki (GLO1 + 4) [mM] | Ki (GLO1) [mM] | Molecule | Km (purified protein [1]) [mM] | Km (purified protein [2]) [mM] | Km (purified protein [3]) [mM] | Km (purified protein [4]) [mM]
1 | 6.34 ± 1.74 | 5.6 ± 1.23 | 5.49 ± 1.04 | 4.57 ± 0.93 | O=C(O)C(=O)O [oxalate] | – | – | – | –
2 | – | – | – | – | GLO3 (Oryza sativa Japonica Group) (protein, complete ORF, N-terminal 6xHis tag kept, expressed in Saccharomyces cerevisiae INVSc1, Ni-IDA purified, subunit about 40 kDa) MELITNVSEYEQLAKQKLPKMIYDYYASGAEDQWTLKENREAFSRILFRPRILIDVSRINMATNVLGFNISMPIMIAPSAMQKMAHPEGELATARAASAAGTIMTLSSWSTSSVEEVNSAAPGIRFFQLYVYKDRNIVRQLVRRAELAGFKAIALTVDTPRLGRREADIKNRFNLPPHLVLKNFEALDLGKMDKTNDSGLASYVASQVDRSLSWTDVKWLQTITSLPILVKGVMTAEDTRLAVESGAAGIIVSNHGARQLDYVPATISCLEEVVREAKGRLPVFLDGGVRRGTDVFKALALGASGVFIGRPVLFSLAVDGEAGVRKVLQMLRDELELTMALSGCTSLAEITRNHVITDSDRIRRSRL | 1.104 ± 0.056 | 0.470 ± 0.035 | 2.762 ± 0.311 | 1.799 ± 0.084
3 | – | – | – | – | GLO4 (Oryza sativa Japonica Group) (protein, complete ORF, N-terminal 6xHis tag kept, expressed in Saccharomyces cerevisiae INVSc1, Ni-IDA purified, subunit about 40 kDa, homo-oligomer; GLO4/GLO5 names may be swapped in databases, go by printed locus) MGEITNVTEYQAIAKQKLPKMIYDYYASGAEDEWTLQENREAFARILFRPRILIDVSKIDMATTVLGFKISMPIMIAPSAMQKMAHPDGEYATARAASAAGTIMTLSSWATSSVEEVASTGPGIRFFQLYVYKDRRVVEQLVRRAERAGFKAIALTVDTPRLGRREADIKNRFVLPPFLTLKNFEGLELGKMDQASDSGLASYVAGQIDRTLSWKDVKWLQTITTLPILVKGVITAEDTRLAVENGAAGIIVSNHGARQLDYVPATISALEEVVKAARGQLPVFLDGGVRRGTDVFKALALGAAGVFIGRPVVFSLAAAGEAGVRNVLQMLRDEFELTMALSGCTSLADITRNHVITEADKLGVMPSRL | 4.720 ± 0.291 | 0.613 ± 0.050 | 4.367 ± 0.395 | 5.983 ± 0.333
4 | – | – | – | – | GLO1 (Oryza sativa Japonica Group) (protein, complete ORF, N-terminal 6xHis tag kept, expressed in Saccharomyces cerevisiae INVSc1, Ni-IDA purified, subunit about 40 kDa, homo-oligomer) MGEITNVMEYQAIAKQKLPKMIYDYYASGAEDEWTLKENREAFSRILFRPRILIDVSKIDMSATVLGFKISMPIMIAPSAMQKMAHPDGEYATARAASAAGTIMTLSSWATSSVEEVASTGPGIRFFQLYVYKDRNVVEQLVRRAERAGFKAIALTVDTPRLGRREADIKNRFVLPPYLTLKNFEGLDLAEMDKSNDSGLASYVAGQIDRTLSWKDVKWLQSITSLPILVKGVITAEDARLAVHSGAAGIIVSNHGARQLDYVPATISALEEVVTAAAGRIPVYLDGGVRRGTDVFKALALGAAGVFIGRPVVFALAAEGEAGVRNVLRMMREEFELTMALSGCTSLADITRAHIYTDADRLARPFPRL | 5.128 ± 0.315 | 0.499 ± 0.041 | 4.976 ± 0.305 | 6.505 ± 0.412
5 | – | – | – | – | GLO1 + 4 (Oryza sativa Japonica Group) (protein, co-expressed N-terminally 6xHis-tagged GLO1 (pYES3) and GLO4 (pYES2) in Saccharomyces cerevisiae, Ni-IDA purified; GLO4/GLO5 names may be swapped in databases) chain 1: MGEITNVMEYQAIAKQKLPKMIYDYYASGAEDEWTLKENREAFSRILFRPRILIDVSKIDMSATVLGFKISMPIMIAPSAMQKMAHPDGEYATARAASAAGTIMTLSSWATSSVEEVASTGPGIRFFQLYVYKDRNVVEQLVRRAERAGFKAIALTVDTPRLGRREADIKNRFVLPPYLTLKNFEGLDLAEMDKSNDSGLASYVAGQIDRTLSWKDVKWLQSITSLPILVKGVITAEDARLAVHSGAAGIIVSNHGARQLDYVPATISALEEVVTAAAGRIPVYLDGGVRRGTDVFKALALGAAGVFIGRPVVFALAAEGEAGVRNVLRMMREEFELTMALSGCTSLADITRAHIYTDADRLARPFPRL chain 2: MGEITNVTEYQAIAKQKLPKMIYDYYASGAEDEWTLQENREAFARILFRPRILIDVSKIDMATTVLGFKISMPIMIAPSAMQKMAHPDGEYATARAASAAGTIMTLSSWATSSVEEVASTGPGIRFFQLYVYKDRRVVEQLVRRAERAGFKAIALTVDTPRLGRREADIKNRFVLPPFLTLKNFEGLELGKMDQASDSGLASYVAGQIDRTLSWKDVKWLQTITTLPILVKGVITAEDTRLAVENGAAGIIVSNHGARQLDYVPATISALEEVVKAARGQLPVFLDGGVRRGTDVFKALALGAAGVFIGRPVVFSLAAAGEAGVRNVLQMLRDEFELTMALSGCTSLADITRNHVITEADKLGVMPSRL | 5.227 ± 0.448 | 0.423 ± 0.038 | 4.511 ± 0.307 | 4.883 ± 0.321
